Experimental data as given in the supplement of paper PMC12042874.
± gives the uncertainty stated by the source.

Assay: amyloid nucleation score (Sup35N fusion, yeast selection) (log enrichment); library NNK3; higher = more nucleation; inactive = no reads after selection
How it was run: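 Sup35N fusions to peptides of 20 random codons were expressed in psi-negative yeast, induced 24 hours with 100 μM copper sulfate, and grown 7 days at 30°C on medium lacking adenine and uracil. Input and output plasmid inserts were sequenced by Illumina. The nucleation score is the DiMSum log enrichment of output over input reads, centred on the mode score of non-aggregating sequences. Sequences with under 100 input reads were excluded.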

Substance	amyloid nucleation score
IFNLHWDTMLSIHMSIDALR	1.91 ± 0.1
IFTVCHVGSACSGNCTGQ	3.01 ± 0.06
IFVFLHLHLIWFYSSSWLMD	inactive
IFVGVSYVHFRLEH	1.8 ± 0.099
IFVLLVRANV	-0.449 ± 0.7
IFVLQGRKYSSTSWLITHHC	inactive
IFVVP	inactive
IFWVSRSDA	inactive
IFYCLSYLGTSVVEIHCLYA	inactive
IFYVLSTMNDSIVV	inactive
IGAWHVLITGCTFQEIPR	1.88 ± 0.064
IGCEQDADNYNRSWWIWMKF	inactive
IGEPCLWNSV	inactive
IGITHFRTCDGHNVRGRNRW	inactive
IGKKVCMCRDKGGLIGLRGG	inactive
IGLFNTNVWKCFDCDTPAMF	inactive
IGLLYLHLPNIALINRSVVG	inactive
IGMYNEGFGMVLMTCPRLFF	2.09 ± 0.077
IGRPGVRYNLKCRGRIRG	inactive
IGRVNSSGVQDGSHCYECES	0.481 ± 0.27
IGVDVTYSKGLSGTIDKSLG	inactive
IHILFGTSWLMTRLFCLVK	inactive
IHKTFLTL	inactive
IHLRDMSLS	0.591 ± 0.16
IIFFWILS	0.16 ± 0.29

Substance	amyloid nucleation score
IIMISLITYFLSLNTSKLYQ	inactive
IIRCKMM	-0.538 ± 0.57
IIRMMFISFN	1.84 ± 0.076
IISMPLGACMKAARMSF	inactive
IITSLK	0.154 ± 0.27
IIVTL	inactive
IIYPAMTHFLSYMYRVNCVS	inactive
IIYVNTSEGVSVFRNWSDDV	inactive
IKATWRSFMCVIFNLLLLP	-0.184 ± 1.3
IKCMNTLTDCCGMV	inactive
IKCVCFLCPNQ	1.02 ± 0.19
IKFGLTYSRSTMSGHSLKGY	inactive
IKLARSAYQLSSVNMRVKVI	inactive
IKLHGQAHLIMSTLLPYMHK	inactive
IKRSGGYVGFCRLVERSQRG	inactive
IKYKDKGIWFLVSCGHFRLR	inactive
ILDDSSWNSLTANVVVWTYF	-1.05 ± 1.3
ILFLNHDMWQCDNDSLKAIH	inactive
ILFRGPKLCKNGHVL	inactive
ILHLQSPGQATCANNKCLFP	inactive
ILIEVFLWSCYKYVNC	inactive
ILIPNNFLLMQLDWLLIEF	inactive
ILIRREFGLFTNFSMYGSKA	inactive
ILKLQEQTSNGLAVSNESSC	inactive
ILKYCQTSLRGERPILLLDF	inactive

Substance	amyloid nucleation score
ILLIINFG	2.21 ± 0.065
ILLQVLIR	inactive
ILPGL	inactive
ILQMVDVGMEICYTPVLAYF	inactive
ILRWRHMVVWSPNVHGVGAF	inactive
ILSLTFCVRRGEHGMASFCL	0.07 ± 0.46
ILTIEDGIIYC	inactive
ILVFM	0.509 ± 0.24
ILVYSVLIV	inactive
IMDGFWCIDTGCLTAHGMWM	inactive
IMEFYERMLFL	inactive
IMGTYKSDLVAARFRFYV	inactive
IMKTYLLMLSFFRNPPMVVL	inactive
IMRMRLVCWTYKYNSLLPFV	inactive
IMSRCKNSYASLATVSCRSL	inactive
IMYSYNGRLCGTIELSFPGL	0.814 ± 0.26
INLGKTSIRSIDRNNVCMLG	inactive
INMALYSSLNLVG	1.32 ± 0.078
INMNDSINGS	0.231 ± 0.62
INPLLR	0.744 ± 0.2
INSRKSHGLSEPSHYQT	inactive
INTKECYHSGS	inactive
INWCSVTDRCHKGMCLKSAG	inactive
INYQLMW	0.9 ± 0.1
IPAELDRQNSSAVNTPYHEM	inactive

Substance	amyloid nucleation score
IPDDDFFLLALSTLN	inactive
IPLDRMCFFSMK	inactive
IPQNNLSDWLKCQMILVKEY	inactive
IPSWREWVYGVINWRAGSSP	inactive
IPYKHIHRMPFFYHWQQRFG	inactive
IQLIILMASTGSLYLPSDWT	0.349 ± 0.18
IQNSRNNKHYATFGTQFFMS	inactive
IQSAMSLIVIYHGK	2.69 ± 0.076
IQYLLLLSTTARFLWKCFSL	0.37 ± 0.28
IRFPTHSMYSLLYKRFLSPD	-0.744 ± 1.8
IRGFVSIW	inactive
IRGYFIPCGETLDEDLLFKQ	inactive
IRRRLEMLNTSLYSHI	inactive
IRTFIIQADSSVVPIKVFYR	1.55 ± 0.099
IRTGDLVFVWYIRVTNTIPC	inactive
IRVMA	inactive
IRVSVVRSICMQSGRCEYQA	1.21 ± 0.15
IRYPVRV	inactive
ISDHTLAGIIFC	inactive
ISFLADYRQPSVKFVGGYVM	inactive
ISGHGMKAVMSVDHSLY	inactive
ISGKSHSFCCVTLFHLREGI	1.12 ± 0.17
ISINMRAGMDG	inactive
ISISLLFGMTFTSFSRLIHF	1.42 ± 0.11
ISIVKGCAFGLLSTFMATPS	0.079 ± 0.75

Substance	amyloid nucleation score
ISKLVY	inactive
ISLDLG	inactive
ISLLTVHTVSVTF	inactive
ISLVGFHVKLVFL	2.11 ± 0.09
ISMFCMIGFEVW	inactive
ISNHLVVEYVRWIKSKLLGR	inactive
ISNSLSIEGLAY	inactive
ISPVRRWPQLLIYAMVTGGQ	inactive
ISQCVCSSYA	-0.265 ± 0.7
ISQQTFNFALSMCTSPASRI	inactive
ISRSYCCVYT	inactive
ISSFCRGLVAFEPCWFGLEK	inactive
ISSPDSTTIRNDVSD	inactive
ISTARCNLLCRCWLRIYYND	inactive
ISTCMMFLF	inactive
ISTIRYNISYANAYYSSRQG	0.699 ± 0.21
ISTKGITTRSLLDFKILCIT	inactive
ISVTNGIMMVPLNGSNLFPS	-0.166 ± 0.62
ITCCM	inactive
ITFVRGWVFDLQFNATE	0.55 ± 0.37
ITICVSIF	1.75 ± 0.072
